Data as given in PMC11315935, “Multi-layered heterochromatin interaction as a switch for DIM2-mediated DNA methylation” (Nature Communications, 2024).

What was measured:
[1] = target: T1, DIM2 (Defective-In-Methylation-2) N-terminal fragment, residues 1-1242, wild type (Neurospora crassa, UniProt Q3Y3Z1 1-1242); experiment: SEC; analytical SEC, 1.0 µM DIM2 and/or 2.5 µM HP1 on Superdex 200 increase 10/300 GL, 20 mM Tris-HCl pH 7.5, 100 mM NaCl, 5% glycerol, 5 mM DTT; fractions on SDS-PAGE; details: both partners purified
T1 construct: In the DIM2-HP1-H3K9me3-DNA complex C926 is covalently linked to zebularine of the DNA; also called WT DIM2; apo-DIM2; source: E. coli BL21 (DE3) RIL, purified (Ni-NTA, heparin, TEV cleavage, second Ni-NTA, SEC); not shown: His6, N-terminal, cleaved; MBP, N-terminal, cleaved
T1 sequence (looked up): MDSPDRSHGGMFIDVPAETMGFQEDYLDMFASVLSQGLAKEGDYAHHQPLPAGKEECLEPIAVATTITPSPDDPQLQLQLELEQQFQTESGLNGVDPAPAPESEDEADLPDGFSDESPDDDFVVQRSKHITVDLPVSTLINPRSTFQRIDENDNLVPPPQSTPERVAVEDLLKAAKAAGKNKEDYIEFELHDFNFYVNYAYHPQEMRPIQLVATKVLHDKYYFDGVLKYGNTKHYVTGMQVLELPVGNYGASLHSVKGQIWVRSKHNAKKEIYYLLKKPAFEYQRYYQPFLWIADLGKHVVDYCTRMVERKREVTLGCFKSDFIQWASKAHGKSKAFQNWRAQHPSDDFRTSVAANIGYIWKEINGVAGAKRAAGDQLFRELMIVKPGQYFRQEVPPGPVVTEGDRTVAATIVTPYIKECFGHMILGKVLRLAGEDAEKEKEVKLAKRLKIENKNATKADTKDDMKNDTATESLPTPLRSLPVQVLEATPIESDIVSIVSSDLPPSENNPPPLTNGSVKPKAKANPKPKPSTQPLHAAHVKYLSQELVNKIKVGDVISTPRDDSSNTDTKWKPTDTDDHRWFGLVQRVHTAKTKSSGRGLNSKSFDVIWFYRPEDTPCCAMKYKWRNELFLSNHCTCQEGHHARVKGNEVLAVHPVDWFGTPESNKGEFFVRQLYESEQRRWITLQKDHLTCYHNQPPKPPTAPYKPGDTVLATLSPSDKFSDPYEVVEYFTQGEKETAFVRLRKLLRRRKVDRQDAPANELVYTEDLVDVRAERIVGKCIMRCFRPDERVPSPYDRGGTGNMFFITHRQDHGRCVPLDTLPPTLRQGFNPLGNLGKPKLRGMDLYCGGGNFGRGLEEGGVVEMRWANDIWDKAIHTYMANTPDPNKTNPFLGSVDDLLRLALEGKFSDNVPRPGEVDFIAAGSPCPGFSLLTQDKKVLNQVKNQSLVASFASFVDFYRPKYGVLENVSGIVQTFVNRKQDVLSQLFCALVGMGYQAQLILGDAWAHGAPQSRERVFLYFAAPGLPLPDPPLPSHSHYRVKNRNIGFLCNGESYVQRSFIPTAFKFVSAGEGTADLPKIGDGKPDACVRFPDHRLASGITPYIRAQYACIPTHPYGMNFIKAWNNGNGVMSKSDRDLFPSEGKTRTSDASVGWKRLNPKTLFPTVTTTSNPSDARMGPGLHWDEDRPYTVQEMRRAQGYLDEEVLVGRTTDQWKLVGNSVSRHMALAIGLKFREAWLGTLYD

[2] = target: T2, DIM2 (residues 1-1242) L134A/L139A double mutant (Neurospora crassa, UniProt Q3Y3Z1 1-1242, L134A | L139A); experiment: as above; details: both partners purified
T2 construct: source: E. coli BL21 (DE3) RIL, purified as WT; not shown: His6, N-terminal, cleaved; MBP, N-terminal, cleaved
T2 sequence (looked up): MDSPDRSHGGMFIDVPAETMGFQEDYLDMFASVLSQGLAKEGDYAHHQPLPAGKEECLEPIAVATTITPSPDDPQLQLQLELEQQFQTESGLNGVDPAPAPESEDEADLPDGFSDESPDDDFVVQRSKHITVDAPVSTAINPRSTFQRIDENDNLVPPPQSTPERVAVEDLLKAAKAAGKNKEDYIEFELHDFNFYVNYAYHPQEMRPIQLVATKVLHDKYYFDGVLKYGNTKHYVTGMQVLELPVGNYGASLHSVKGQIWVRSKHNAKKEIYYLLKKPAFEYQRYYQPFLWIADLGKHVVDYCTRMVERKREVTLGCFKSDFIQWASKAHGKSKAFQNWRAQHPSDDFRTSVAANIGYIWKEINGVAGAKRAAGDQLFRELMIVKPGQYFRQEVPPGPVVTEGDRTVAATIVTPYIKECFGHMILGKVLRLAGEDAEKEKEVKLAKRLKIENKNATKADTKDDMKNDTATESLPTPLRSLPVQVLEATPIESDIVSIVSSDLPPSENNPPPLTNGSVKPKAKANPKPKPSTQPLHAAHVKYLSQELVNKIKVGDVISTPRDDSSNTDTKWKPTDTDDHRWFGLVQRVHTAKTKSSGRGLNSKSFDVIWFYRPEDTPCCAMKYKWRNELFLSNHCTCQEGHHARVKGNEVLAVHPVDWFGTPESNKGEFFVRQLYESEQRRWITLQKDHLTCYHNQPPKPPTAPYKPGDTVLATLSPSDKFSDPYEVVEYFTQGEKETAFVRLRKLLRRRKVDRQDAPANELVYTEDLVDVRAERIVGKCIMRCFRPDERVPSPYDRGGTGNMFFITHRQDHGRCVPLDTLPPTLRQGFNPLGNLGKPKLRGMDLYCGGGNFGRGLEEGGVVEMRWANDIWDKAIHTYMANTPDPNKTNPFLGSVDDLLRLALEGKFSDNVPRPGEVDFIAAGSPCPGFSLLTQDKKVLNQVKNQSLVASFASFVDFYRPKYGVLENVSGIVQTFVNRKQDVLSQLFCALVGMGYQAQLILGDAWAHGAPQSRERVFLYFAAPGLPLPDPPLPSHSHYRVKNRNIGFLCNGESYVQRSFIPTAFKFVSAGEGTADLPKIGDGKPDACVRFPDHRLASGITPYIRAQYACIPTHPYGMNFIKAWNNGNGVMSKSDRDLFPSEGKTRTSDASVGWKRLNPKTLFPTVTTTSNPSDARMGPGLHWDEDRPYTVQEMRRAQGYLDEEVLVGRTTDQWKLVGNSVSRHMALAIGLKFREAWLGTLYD

binding result [1]: binds | binding result [2]: binds
B1: heterochromatin protein 1 (HP1), full length, residues 1-266 (natural protein, Neurospora crassa, UniProt Q1K612 1-266, looked up)
chain: MPYDPSALSDEEAASSVELDTRSATSSSKKQSRDKKSVKYTIPEPEDFEDEEQNGDGADEGGEDDEEGDEEEEDVYVVEKILDHMLNDDNEPLFLVKWEGYEKKSDQTWEPEDTLIEGASERLKEYFTKIGGREKIFEASAAAQKIKKRGRPSSNSGTPQASSNKRSRKNGDHPLNSEEPQTAKNAAWKPPAGSWEEHIAQLDACEDEDTHKLMVYLTWKNGHKTQHTTDVIYKRCPQKMLQFYERHVRIIKRDPDSEDREGSVSQ
notes: HP1, Neurospora crassa, UniProt Q1K612, residues 1-266, synthetic codon-optimised gene; Homodimer through its chromo shadow domains in the cryo-EM structures; only the CSDs (K189-I251, C191-I251) were traced; also called HP1-I; HP1-II; source: E. coli BL21 (DE3) RIL, purified (Ni-NTA, heparin, TEV cleavage, second Ni-NTA, SEC); not shown: His6, N-terminal, cleaved; MBP, N-terminal, cleaved
